Reference: patent US20170157245A1, “TREATMENT OF GASTRIC CANCER” (OncoMed Pharmaceutlcals, Inc., priority 2014, published 2017)
Numbering of substitutions follows the chain as printed.

B1: demcizumab: anti-DLL4 antibody, demcizumab (also known as OMP-21M18); heavy chain variable region SEQ ID NO:9 (antibody, chains of the INN, looked up, V domains shown)
VH: QVQLVQSGAEVKKPGASVKISCKASGYSFTAYYIHWVKQAPGQGLEWIGYISSYNGATNYNQKFKGRVTFTTDTSTSTAYMELRSLRSDDTAVYYCARDYDYDVGMDYWGQGTLVTVSS
VL: DIVMTQSPDSLAVSLGERATISCRASESVDNYGISFMKWFQQKPGQPPKLLIYAASNQGSGVPDRFSGSGSGTDFTLTISSLQAEDVAVYYCQQSKEVPWTFGGGTKVEIK
B2: 219R45-MB-21R83: anti-hVEGF/anti-hDLL4 bispecific antibody; heavy chains SEQ ID NO:7 and SEQ ID NO:62, two light chains SEQ ID NO:8 (antibody, chains of the INN, looked up, V domains shown)
VH: B1 VH with S53N, G56R
VL: B1 VL
VH2: QVQLVQSGAEVKKPGASVKVSCKASGYTFTNYWMHWVRQAPGQGLEWMGDINPSNGRTSYKEKFKRRVTLSVDKSSSTAYMELSSLRSEDTAVYFCTIHYDDKYYPLMDYWGQGTLVTVSS
VL2: B1 VL

Key:
[1] = test system: xenograft tumor models; details: Hoey et al., 2009, U.S. Pat. No. 7,750,124; cited from earlier work
[2] = test system: OMP-STM1 gastric tumor xenografts; test: Inhibition of OMP-STM1 gastric tumor growth in vivo; details: subcutaneous xenograft in NOD/SCID mice, 3 mg/kg weekly intraperitoneally for 4 weeks, given plus anti-mVEGF/anti-mDLL4 bispecific antibody, compared with control, anti-DLL4 and anti-VEGF antibodies
Description: FIG. 1. […] OMP-STM1 gastric tumor cells were injected subcutaneously into NOD/SCID mice. Mice were treated with control antibody (-[…]-), anti-hDLL4 antibody 21M18 (demcizumab) plus anti-mDLL4 antibody (-▪-), anti-VEGF antibody bevacizumab plus anti-mVEGF antibody (-⋄-), or anti-VEGF/anti-DLL4 bispecific antibody 219R45-MB-21M83 (305B83) plus anti-mDLL4/anti-mVEGF antibody (-▾-). Data is shown as tumor volume […] over days post-treatment. Antibodies were administered intraperitoneally at a dose of 3 mg/kg once a week. * indicates p<0.05 vs control antibody as assessed by two-way ANOVA.
Single cell suspensions of OMP-STM1 gastric tumor xenografts (50,000 cells) were injected subcutaneously into the flanks of 6-8 week old NOD/SCID mice. Tumors were allowed to grow for 34 days until they reached an average volume of 110 mm^3. The mice were randomized (n=8 per group) and treated with anti-hDLL4 antibody 21M18 (demcizumab) plus anti-mDLL4, anti-hVEGF antibody bevacizumab plus anti-mVEGF, anti-hVEGF/anti-hDLL4 bispecific antibody 219R45-MB-21R83 (305B83) plus an anti-mVEGF/anti-mDLL4 bispecific antibody, or control antibody. Antibodies were dosed at 3 mg/kg weekly by intraperitoneal injection for 4 weeks. Tumor growth was monitored and tumor volumes were measured with electronic calipers at the indicated time points. Data are expressed as mean±S.E.M.

Molecule	frequency of cancer stem cells [1]	tumor growth inhibition [1]	inhibition of OMP-STM1 gastric tumor growth (tumor volume) ([2]; listed as 219R45-MB-21M83, 3 mg/kg)	inhibition of OMP-STM1 gastric tumor growth (tumor volume) ([2]; listed as bispecific anti-VEGF/anti-DLL4 antibody, 3 mg/kg)
B1	reduce the frequency of cancer stem cells	inhibit tumor growth	–	–
B2	–	–	Inhibition of gastric tumor growth in vivo	greater inhibition of OMP-STM1 gastric tumor growth than either anti-DLL4 antibodies alone or anti-VEGF antibodies alone
